In paper PMC11417369, “DNA sequence and chromatin differentiate sequence-specific transcription factor binding in the human malaria parasite Plasmodium falciparum”:
Residue numbers refer to the chain shown, from its start.

T1: PF3D7_0420300 D1 (Plasmodium falciparum, UniProt Q8I1N6 1956-2015)
T1 sequence: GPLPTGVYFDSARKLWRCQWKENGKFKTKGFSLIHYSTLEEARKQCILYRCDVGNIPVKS

B1: CACACA_negctrl_site1522 (dsDNA)
DNA 1: TTTTTATGTTATCAAATAAATATAAATATAATTCAT
DNA 2: ATGAATTATATTTATATTTATTTGATAACATAAAAA
B2: CACACA_negctrl_site219 (dsDNA)
DNA 1: GCAAAACATTTTTAAAATAAAAATAATAAAATATAT
DNA 2: ATATATTTTATTATTTTTATTTTAAAAATGTTTTGC
B3: CACACA_negctrl_site892 (dsDNA)
DNA 1: TTAATATATAATAAATTTTTTTTTTTTTTTTTTTTT
DNA 2: AAAAAAAAAAAAAAAAAAAAATTTATTATATATTAA
B4: CACACA_negctrl_site1763 (dsDNA)
DNA 1: AAAAAAAAATATACATATATATATATATATATATAT
DNA 2: ATATATATATATATATATATATGTATATTTTTTTTT
B5: CACACA_site8825 (dsDNA)
DNA 1: AAAAAAGATAATTATGCACACACACCCACCCACCCA
DNA 2: TGGGTGGGTGGGTGTGTGTGCATAATTATCTTTTTT
B6: CACACA_negctrl_site165 (dsDNA)
DNA 1: TCTCAAGTTGTTAAAAAATAAAAACAATAAATCTAA
DNA 2: TTAGATTTATTGTTTTTATTTTTTAACAACTTGAGA
B7: CACACA_negctrl_site1331 (dsDNA)
DNA 1: AATATAATCTTTCAAAAGAAAAAGACTTCATGAAAA
DNA 2: TTTTCATGAAGTCTTTTTCTTTTGAAAGATTATATT
B8: CACACA_negctrl_site1280 (dsDNA)
DNA 1: TTATTAAGTAAATCACATTTAATTTTTTTTTTTTTT
DNA 2: AAAAAAAAAAAAAATTAAATGTGATTTACTTAATAA
B9: CACACA_site2373 (dsDNA)
DNA 1: ATGTTCTTTAAAACCACACACCCCCCAACCCCCCTC
DNA 2: GAGGGGGGTTGGGGGGTGTGTGGTTTTAAAGAACAT
B10: CACACA_negctrl_site1833 (dsDNA)
DNA 1: TAATATTTTTATTATTAGAATTGTATATGTTTAATA
DNA 2: TATTAAACATATACAATTCTAATAATAAAAATATTA
B11: CACACA_negctrl_site510 (dsDNA)
DNA 1: TAATATCTAAAAAATATATTTTTTATTTTTTATTAA
DNA 2: TTAATAAAAAATAAAAAATATATTTTTTAGATATTA
B12: CACACA_negctrl_site1272 (dsDNA)
DNA 1: ATTTTTTTTTTTTTTTTTTTTTTTTAGATTAAGAAA
DNA 2: TTTCTTAATCTAAAAAAAAAAAAAAAAAAAAAAAAT
B13: CACACA_site8429 (dsDNA)
DNA 1: TAAGAAATAAATAGTACACACATAGACACCCACCCA
DNA 2: TGGGTGGGTGTCTATGTGTGTACTATTTATTTCTTA
B14: CACACA_negctrl_site571 (dsDNA)
DNA 1: TTTGTAATAAACTACTTTTTTTTTTTTTTTTTTTTT
DNA 2: AAAAAAAAAAAAAAAAAAAAAGTAGTTTATTACAAA
B15: CACACA_negctrl_site609 (dsDNA)
DNA 1: GTATATATATATATATATATATATATATATATATAT
DNA 2: B15 DNA 1 with G1A, T36C
B16: CACACA_negctrl_site521 (dsDNA)
DNA 1: TAGTTCTTTTAATTTAGTATTATACAATATTGGAAA
DNA 2: TTTCCAATATTGTATAATACTAAATTAAAAGAACTA
B17: CACACA_negctrl_site285 (dsDNA)
DNA 1: TATTATGTCTAAAATAACATATTAATATATTATTTC
DNA 2: GAAATAATATATTAATATGTTATTTTAGACATAATA
B18: CACACA_negctrl_site232 (dsDNA)
DNA 1: AAACAAAATTTATTTCAAAGTTAATAATTTTTATGT
DNA 2: ACATAAAAATTATTAACTTTGAAATAAATTTTGTTT
B19: CACACA_negctrl_site309 (dsDNA)
DNA 1: TTATTCCTTTTCCTTTTTTTTTTTTAACCAAAAAAA
DNA 2: TTTTTTTGGTTAAAAAAAAAAAAGGAAAAGGAATAA
B20: CACACA_negctrl_site17 (dsDNA)
DNA 1: AAAAGAAAAAAAAAAAAAAAAAAAATTAAAATATAA
DNA 2: TTATATTTTAATTTTTTTTTTTTTTTTTTTTCTTTT
B21: CACACA_negctrl_site553 (dsDNA)
DNA 1: TTTTTATATTATTTAATGAGAAATAATTATAAACAA
DNA 2: TTGTTTATAATTATTTCTCATTAAATAATATAAAAA
B22: CACACA_negctrl_site1830 (dsDNA)
DNA 1: ATGGACATTTTATAAATCACAATGGATATTTTATAA
DNA 2: TTATAAAATATCCATTGTGATTTATAAAATGTCCAT
B23: CACACA_negctrl_site60 (dsDNA)
DNA 1: TTATAGGTTCTATACATATATTTATATATGTACAGA
DNA 2: TCTGTACATATATAAATATATGTATAGAACCTATAA
B24: CACACA_negctrl_site1348 (dsDNA)
DNA 1: TTATTATCATCAAATCAAAAAATTCTTTTACCTGTT
DNA 2: AACAGGTAAAAGAATTTTTTGATTTGATGATAATAA
B25: CACACA_negctrl_site1550 (dsDNA)
DNA 1: TAAAATTAATAAAATATTTTCACTTAATATATATAA
DNA 2: TTATATATATTAAGTGAAAATATTTTATTAATTTTA
B26: CACACA_negctrl_site930 (dsDNA)
DNA 1: ACATATATATATATATATATATATATATATTCTTAA
DNA 2: TTAAGAATATATATATATATATATATATATATATGT
B27: CACACA_negctrl_site84 (dsDNA)
DNA 1: CACACTTTTTAAATTAACGCATTTCAAAAAAAATAT
DNA 2: ATATTTTTTTTGAAATGCGTTAATTTAAAAAGTGTG
B28: CACACA_negctrl_site1320 (dsDNA)
DNA 1: TTTTAAAACAATGAGATTCCTTTCTTTTTTTCTTTT
DNA 2: AAAAGAAAAAAAGAAAGGAATCTCATTGTTTTAAAA
B29: CACACA_negctrl_site10 (dsDNA)
DNA 1: AAATCACAAAAAAAAAAAAAAATATATATATATATA
DNA 2: TATATATATATATATTTTTTTTTTTTTTTGTGATTT
B30: CACACA_negctrl_site681 (dsDNA)
DNA 1: CACAAAGGTCTGAAATTTTAGGGGTGCCTGGGACTA
DNA 2: TAGTCCCAGGCACCCCTAAAATTTCAGACCTTTGTG
B31: CACACA_negctrl_site641 (dsDNA)
DNA 1: TCTTGACGAAGTAGAAGGATATATATATAAAAAAAA
DNA 2: TTTTTTTTATATATATATCCTTCTACTTCGTCAAGA
B32: CACACA_negctrl_site514 (dsDNA)
DNA 1: AGATTTCAAGGTAATAGATCAATTTTAATTTGTAAA
DNA 2: TTTACAAATTAAAATTGATCTATTACCTTGAAATCT

The binders below were run against T1, PF3D7_0420300 D1 (assay: gcPBM; about 25 ug protein; PBS, 1% milk, 0.2 mg/ml BSA, salmon testes DNA, 0.03% Triton X-100). Conditions: tags: N-terminal GST (pGEX-4T-1), kept; label: surface-attached array probe.

Row | Binder | binding signal
1 | B1 | 8.91 ln median PBM intensity, better of two orientations
2 | B2 | 8.88 ln median PBM intensity, better of two orientations
3 | B3 | 8.85 ln median PBM intensity, better of two orientations
4 | B4 | 8.93 ln median PBM intensity, better of two orientations
5 | B5 | 10.6 ln median PBM intensity, better of two orientations
6 | B6 | 8.93 ln median PBM intensity, better of two orientations
7 | B7 | 8.86 ln median PBM intensity, better of two orientations
8 | B8 | 8.82 ln median PBM intensity, better of two orientations
9 | B9 | 10.6 ln median PBM intensity, better of two orientations
10 | B10 | 8.92 ln median PBM intensity, better of two orientations
11 | B11 | 8.86 ln median PBM intensity, better of two orientations
12 | B12 | 8.84 ln median PBM intensity, better of two orientations
13 | B13 | 10.6 ln median PBM intensity, better of two orientations
14 | B14 | 8.96 ln median PBM intensity, better of two orientations
15 | B15 | 8.9 ln median PBM intensity, better of two orientations
16 | B16 | 8.91 ln median PBM intensity, better of two orientations

Row | Binder | binding signal
17 | B17 | 8.94 ln median PBM intensity, better of two orientations
18 | B18 | 8.93 ln median PBM intensity, better of two orientations
19 | B19 | 8.9 ln median PBM intensity, better of two orientations
20 | B20 | 8.84 ln median PBM intensity, better of two orientations
21 | B21 | 8.82 ln median PBM intensity, better of two orientations
22 | B22 | 8.96 ln median PBM intensity, better of two orientations
23 | B23 | 8.89 ln median PBM intensity, better of two orientations
24 | B24 | 8.94 ln median PBM intensity, better of two orientations
25 | B25 | 8.87 ln median PBM intensity, better of two orientations
26 | B26 | 8.93 ln median PBM intensity, better of two orientations
27 | B27 | 8.95 ln median PBM intensity, better of two orientations
28 | B28 | 8.89 ln median PBM intensity, better of two orientations
29 | B29 | 8.95 ln median PBM intensity, better of two orientations
30 | B30 | 8.87 ln median PBM intensity, better of two orientations
31 | B31 | 8.88 ln median PBM intensity, better of two orientations
32 | B32 | 8.83 ln median PBM intensity, better of two orientations
